Data on 15 sequences can be found in a protein production outcome set (Wang et al. 2014).

The series in a line: label from the status in PepcDB records.
Turning to “MTTLYANVYLLSTPQGRLLLDTGTVNHAPAFARLLRSFDPDAVVVTHSHIDHAGNAFLAARLGYPVLAHPLEHDRLLGHDLSMPYPAGQPGVGRLVSRLHPRPGAERLGALYPGDTVRGWEVVHLPGHTDGQIGLQRDGVLLAADAVLSHPRTGAHLPREGYNWDHAVALQTLKKVADLDLHTVLPGHGRALDMAQVRARAVRDDEPGDRAEDAA”, the protein production entry is reported as “failed”.
As for “MTTNSSSNTVVVYHSGYGHTHRMAEAVAEGAEATLHAIDAEGNLSEDGWAALDAADAIIFGTPTYMGGPSWQFKKFADASSKPWFSAKWQDKVFGGFTNSASLNGDKLNTLQYLVLLAGQHGGLWVSLGIKPSNLKSSVRNDANRMGSYIAPMAQSDADAAPEEMSVGDLETARLYGARVANVARQHKSTERV”, the entry is “not failed”; as for “MTTPSASTRAVLEEACLSVGLDTTNAQPIRIAENAVWRLPGGVVVRVARPGQSAAAAREVQVARWLTAEGVPAVRALDLPQPVAASGHPVTFWQELPPHEIGTVTDVVVLLKQLHALPKPDLPLGELDPFVRLVERIDAAITISDDDQLWLKHRLEDLKQQWASRPKGLPECVVHGDAWVGNVARTEAGPMLLDFERASFGPPEWDLVSTAVKLTTTGAVSAEEYAAFCETYGVDVTEWEGYELLANARELRMVTYAAQHAASRPEWRREAQYRIDCLRGRAGAPPWRWKGII”, “failed”.
With “MTTQSQFLVNLSYGGLASQSNLRANNRVSPSSCQITRTNRSWALPVSFKVEKFQLQRGRRRRGSPCFGESEGLVKNGIGDADGIIIVDHGSRRRESNLMLEEFVKMFKEKTGYPIVEPAHMELAEPSIKDAFSLCVQQGAKRVVVSPFFLFPGRHWHTDIPSLTADAAKEFSGISYLITAPLGPHNLLLDVVNDRIQHCLSHVEGDADECLVCAGTNKCKLYNSS”, the protein production entry is reported as “failed”.
The result for “MTTRDRTAIFKRYREESVVAKRKRSGNDGIQTIGNQSLSGNHKELAPFLNKGSIQTDSHTVFLPPQWLDWYEELSNSVDSVTHQLAQLESLQQNHLLPGFEERSDEESQISELSRNITLLLQRSQERIRLLAPSSSEPNISSEEKLLRTNAQKYFASKLQELSLSFRRNQKEYLRKLQGQNALVEESTDENPLSTSLELEEYDPGFTQEQVMLLENSDQVASERQREIMKIASSINDLATIVKDIASLVIDQGTLLDRIDYNVEEIEVSTEGAVKELEKAKRSQKKG” reads “failed”; that for “MTTTKDVPIDLKASGKTAADTSYSFSSDTKSVTVTGTKAALAKLKSLPVNVDVTNVDSTTTKTVDVSTSDEDGISSVSPTSVKVKITVKNDLEHHHHHH”, “not failed”; that for “MTTTLSPDTARQIVPPEERYAAELAFLAAYDDGPRPPAWRLTPRAVVTFVMGSDGRALRLPEGAETPEGVPRRLTVEGKFVGDRSLVERCVVTLAGERGLLLVGEPGTAKSMLSELLSAAVCGTSGLVVQGTAGTTEDQLKYGWNYALLLAQGPSRTALVPSPVLTAMARGGIARVEEVTRCLPEVQDALVSLLSERRIAVPELSGTDDALAHAAPGFNLIATANLRDKGVSEMSAALKRRFNFETVGPIPDLDAETALVRSQARASVERAGAPFKVDEAVLEALVVAFRDLREGRSTEGWEVERPSTVMSTAEAVSVAGALGLAAAYFPGDRDVLGLLPGHLLGVVRKDDPADAARLRGYWDGPVRRRAEQGSATWRTLWDLRTVLEGLEHHHHHH”, “failed”.
In the case of “MTTTNEQEQSRAYILAGLFTLSLRLVVGWTYFSAFWRRLVLENKLIPDSAGYIGEKFNHFLPNSIGIRPVIEYLVSTPDMLWWAMVIFTLVEGIVGLLYMLGFFTRLMSIGVFSLATGILLGSGWLGTTCLDEWQIGILGIAAGFTIFLSGGGKYSVDHLIERKFSLKKKAAWLSWLTSGELPVSAKRFANVSVAGAIVIFTLSLYTNQEFHNGVWGPLHNKSVKPKIEISDAQIENNSLSFSVYRVEGVDVYGSFLIGISLKNADGDIVLEKKGEELADFPIGNIDNKYIARVAPGKHSLVIPLGSKATLTVDDTAIGSLPKGKYELVLTDISGITWKKEIIH”, the protein production entry is on record as “failed”.
The result for “MTTTPDWIMIGGDGPESYNQQSSYQRALLEATKDKMTKAISANLDLDLISNRFIVADFGCASGPNTFVAVQNIIDAVEEKYRRETGQNPADNIEFQVLFNDFSLNDFNTLFQTLPPGRRYFSAGVPGSFFERVLPKESFHIGVMSYAFHFTSKIPKGIMDRDSPLWNKDMQCTGFNPAVKKAYLDQYSIDTKILLDARAEELVPGGLMLLLGSCLRDGVKMSETPKGTVMDFIGESLSDLAKQGVTEQEKVDTFRTSIYFAEQGEIRQIIEENGKFTIEAFEDIIHAKNEFPFDPKTLAISFKAFYGAFISAHFGVEVMRKAFELVEVKAREQISRLHNSKPGMQYLIVLRKN” reads “failed”; that for “MTVAFASDQRLENGAEQLESLRRQMALLSEKVSGGPSRSGDLVPAGPVSLPPGTVGVLSGARSLLLSMVASVTAAGGNAAIVGQPDIGLLAAVEMGADLSRLAMIPDPGTDPVEVAAVLIDGMDLVVLGLGGRRVTRARARAVVARARQKGCTLLVTDGDWQGVSTRLAARVCGYEITPALRGVPTPGLGRISGVRLQINGRGR”, “failed”.
As for “MTVEPFRNEPIETFQTEEARRAMREALRRVREEFGRHYPLYIGGEWVDTKERMVSLNPSAPSEVVGTTAKAGKAEAEAALEAAWKAFKTWKDWPQEDRSRLLLKAAALMRRRKRELEATLVYEVGKNWVEASADVAEAIDFIEYYARAALRYRYPAVEVVPYPGEDNESFYVPLGAGVVIAPWNFPVAIFTGMIVGPVAVGNTVIAKPAEDAVVVGAKVFEIFHEAGFPPGVVNFLPGVGEEVGAYLVEHPRIRFINFTGSLEVGLKIYEAAGRLAPGQTWFKRAYVETGGKDAIIVDETADFDLAAEGVVVSAYGFQGQKCSAASRLILTQGAYEPVLERVLKRAERLSVGPAEENPDLGPVVSAEQERKVLSYIEIGKNEGQLVLGGKRLEGEGYFIAPTVFTEVPPKARIAQEEIFGPVLSVIRVKDFAEALEVANDTPYGLTGGVYSRKREHLEWARREFHVGNLYFNRKITGALVGVQPFGGFKLSGTNAKTGALDYLRLFLEMKAVAERF”, the entry is “not failed”; as for “MTVETFHPKQTTTLETPAKTLEAASADSVNTGNVATGNRIGFVSLGCPKNLVDSERILTQLRIDGYEVTNSYDNADLVIVNTCGFIDAAVEESLDAVREALEENGKVIVTGCLGAKENQIREVHPDVLEITGPHSYEAVLKHVHKYVPKPEHNPFTSLIPQTGVKLTPKHYAYLKISEGCDNRCTFCIIPALRGDLDSRGAGSVLDEAKRLVEAGVQEILVVSQDTSAYGKDKGGRTDFWNGMPVKQDITSLARQLGKMGAWVRLHYIYPYPWVDDLIPLMAEGLILPYLDIPMQHASPRILKMMKRPGRVDRQLEAIQRWREICPDLVIRSTFIVGFPGETEEDFEMLLDFLREARLDRVGCFKYSEVEGAVANTIAELISEEVKEDRYHRFMEVQAEISAERLARFVGRTMDILIDDVDEEGAIGRSFADAPEIDGMVFINGETELEPGMLVRAVITHSDEHDLWAELVDADAEDEVEALEHHHHHH”, “not failed”; as for “MTVKAVFFDIDGTLLNDRKNIQKTTQKAIQQLKKQGIMVGLATGRGPGFVQPFLENFGLDFAVTYNGQYILTRDKVLYQNQLPKSMIYKVIRYANEKKREISLGTASGLAGSRIIDMGTSPFGQVISSFVPKSWARTVEGSFKHLIRRIKPQSFRNLVTIMREPIYQVVLVASQAETKKIQEKFPHIKITRSSPYSLDLISVDQSKIKGIERLGEMFGFDLSEVMAFGDSDNDLEMLSGVGIGIAMGNAETVVKDGAHFTTDSNNNDGISKALAHYGLIH”, “failed”.
As for “MTVQSGELRPNLIALKTIVYREVHRFMRIWPQTLLPPAITMVLYFVIFGNLIGRQIGDMGSFTYMQYIVPGLIMMSVITNSYGNVVSSFFGAKFQHSIEELMVSPVSPHTILIGYTLGGVLRGLMVGFIVTMLSMFFTDLQVHHLGVTIVVVVLTATIFSLLGFINAVFARNFDDISIIPTFVLTPLTYLGGVFYSINLLPPFWQTVSLANPVLHMVNAFRYGILGVSDIKISIALAFMIVATFVLYFGCARLLVSGRGMRQ”, the entry is “failed”; as for “MTVRYFAAAAAAAGIETESLEIATGTSVAELVERLGARNPELARVLKRCSYLCDEVAVRDMAKPLVTPQTVDVLPPFAGGLEHHHHHH”, “failed”.
